Source: patent US7071300 (dated 2006)

Assays:
[1] = molecular target: T1, IGF-1 (human, UniProt P05019); assay: competition, IGF-1 phage binding to IGFBP-1
[2] = molecular target: T1, IGF-1; assay: competition, 125I-IGF-1 binding to MCF-7 cells
[3] = molecular target: T1, IGF-1; assay: competition, IGF-1 phage binding to IGFBP-3

T1 sequence (P05019 49-118): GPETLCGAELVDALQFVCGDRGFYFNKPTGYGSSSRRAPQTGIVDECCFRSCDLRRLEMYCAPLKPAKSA

Binder: RNCFESVAALRRCMYG [F1-1]
- IC50 [1]: 1.4 µM
- IC50 [2]: 5.12 µM
- IC50 [3]: 2.93 µM

Binder: FECLTSVEALRGCMYG [F1-3]
- IC50 [1]: 11.7 µM
- IC50 [2]: 45.7 µM
- IC50 [3]: 12.8 µM

Binder: MDCLASVEALKWCMYG [F1-2]
- IC50 [1]: 15.5 µM
- IC50 [2]: 15.3 µM
- IC50 [3]: 9.2 µM
